Measurements: paper PMC1475855
Values belong to the substance of their own block, whether it stands above or below them.

How the values were obtained:
Experiment in all cases: SEC; FPLC of native protein with His-tag cleaved; HiLoad-16/60 Superdex200, 1 x PBS, 4°C, 1 ml/min; column calibrated with catalase, aldolase, chymotrypsinogen A and ribonuclease A
[1] = molecular target: ecliptic pHluorin (Aequorea victoria)
[2] = molecular target: GFP from the orange seapen Ptilosarcus gurneyi (Pt-GFP) (Ptilosarcus gurneyi)
[3] = molecular target: ratiometric pHluorin (Aequorea victoria)

- stoichiometry N [1]: 2
Substance: ecliptic pHluorin

- stoichiometry N [2]: 4
Substance: GFP from the orange seapen Ptilosarcus gurneyi (Pt-GFP) (natural protein)

- stoichiometry N [3]: 2
Substance: ratiometric pHluorin
